Data reported in patent US12103951B2, “Use of CGRP receptor antagonists in neuroprotection and neurological disorders” (priority 2016, dated 2024).
Read-outs that look alike come from different tables or passages of the source. Marks after values point to notes of the source that are not given here.

Key:
[1] = Rat laser glaucoma model: weight of animals; format: in vivo, Wistar rats
[2] = test system: retinal ganglion cell (RGC); test: Rat laser glaucoma model: number of RGCs (Brn3a positive cells) in retinal whole mounts; format: in vivo, Wistar rats
Description: In this study, Wistar rats (n=12) were used for the experiments. The neuroprotective properties of compounds were investigated in a rat laser model of glaucoma. Rats were divided into two groups of six rats each. One group served as a placebo control receiving vehicle (NaCl) injections, and the other was treated with a peptide CGRP receptor antagonist (SEQ ID NO: 1). For all 12 rats, the contralateral, untreated eye served as a naïve undiseased control. The vehicle control and test compound (20 mg/kg) were administered systemically (IP) daily for the whole follow-up period of two weeks. The animals were sacrificed using transcardial perfusion. […] The number of Brn3a positive profiles was manually counted from retinal images taken from central and peripheral parts of retina. […]
1. Quantification of Brn3a and GFAP-positive cells from retinal whole mounts manually and using stereology. […]
Retinal whole mounts were immuno-stained against RGC (Brn3a) and astrocytic (GFAP) antibodies and the number of cells was quantified either manually (Brn3a) or as previously described (Kalesnykas et al., 2008).
The retinas were immuno-stained against RGC specific antibody Brn3a, retinas were imaged and Brn3a positive profiles were counted manually using Image J software (NIH, Bethesda, Maryland, USA). […]

[3] = test system: Total Cholesterol, Triglycerides, Low-density lipoprotein and High-density lipoprotein; format: in vivo, Sprague Dawley rats; design: HDL / LDL: unit not given here; conditions: for HDL / LDL / T. Chol / Trig: mean, n = 5; for effect on LDL levels in rats (words): normal rats, s.c. daily 14 days, especially male rats, every test dose 100 to 1000 mcg/kg
Description: Sprague Dawley rats were administered the CGRP antagonist daily via the subcutaneous route for a period of 14 days, resulting in the surprising effect of LDL lowering. Fifty six animals (36 males and 20 females) were distributed into four groups (consisting each of 5 males and 5 females per group and 4 extra males each for testing group as backups). The groups were as follows: G1—Control, G2—Low dose—100 mcg/kg, G3—Intermediate dose—300 mcg/kg, G4—High dose—1000 mcg/kg.
Rats from the treatment groups were dosed subcutaneously with CGRP receptor antagonists (SEQ ID NO: 1) reconstituted with normal saline at different dose levels per treatment group for 14 days. Control animals were dosed with the vehicle alone.
The acclimatization period was, at a minimum, 7 days. For the randomization, animals were selected and grouped based on stratified randomization by using body weights one day before dosing (day 0) using an Excel program. The route of administration of the antagonist was by a subcutaneous method. The frequency of the administration was daily for fourteen days. The dose volume was set at 5 ml/kg of body weight. The duration of the treatment was fourteen days with administration occurring approximately at the same time each day.
While preparing the dose formulation, required quantities of test item (i.e. CGRP antagonist) was weighed separately. The required volume of normal saline was added to the test item. A clear solution was obtained after addition of normal saline to test item. The test item was administered subcutaneously at the desired dose level once daily for up to 14 days. Homogeneity of the test item in the vehicle was maintained during administration.
The following observations were recorded: • 1. […] Body Weight • Body weight was recorded on day 1, 7, 11 and 15. • 3. Feed Consumption • Feed consumption was recorded daily and reported weekly. • 4. Blood Collection and Laboratory Investigations • Blood samples for were collected from all animals on day 15. The animals were fasted overnight before blood sampling but allowed access to water ad libitum for hematology and biochemistry. Blood samples were drawn from the retro-orbital plexus using a micro-hematocrit heparinized glass capillary tube. Blood samples were centrifuged (3500 rpm) and after centrifugation plasma was separated for further analysis.
Total Cholesterol, Triglycerides, Low-density lipoprotein and High-density lipoprotein parameters are shown in Tables 4 and 5, for male and female rats, respectively. Data from the LDL analysis is shaded.

[4] = female rats, 100 mcg/kg b.w. s.c. daily 14 days, day 15
[5] = female rats, 300 mcg/kg b.w. s.c. daily 14 days, day 15
[6] = female rats, 1000 mcg/kg b.w. s.c. daily 14 days, day 15
[7] = male rats, 100 mcg/kg b.w. s.c. daily 14 days, day 15
[8] = male rats, 300 mcg/kg b.w. s.c. daily 14 days, day 15
[9] = male rats, 1000 mcg/kg b.w. s.c. daily 14 days, day 15

In the case of “NH2-Ala-Cys-Asp-Thr-Ala-Ala-Cys-Val-Leu-Gly-Arg-Leu-Ser-Gln-Glu-Leu-His-Arg-Leu-Gln-Thr-Tyr-Pro-Arg-Thr-Asn-Val-Gly-Ser-Lys-Ala-Phe-NH2 (H-ACDTAACVLGRLSQELHRLQTYPRTNVGSKAF-NH2; ends and bridges not checked) [SEQ ID NO: 1, peptide CGRP receptor antagonist]”, the “difference in the weight between the groups” value ([1]; Mann-Whitney U test, P>0.05) was “no significant difference”, the Baseline weight ([1]; mean ± SD, baseline) was 538 ± 21 g and the “Weight prior to sacrifice” value ([1]; mean ± SD, end of two-week study) was 524 ± 27 g. The “number of Brn3a positive cells, increase in lasered eyes vs contralateral control eyes” value ([2]; IP daily for two weeks, increase, P=0.43) was 3.0%, the “neuroprotection at cellular and optic nerve axon levels” value ([2]; rat glaucoma model, systemic administration) was “showed neuroprotection” and the “other non-cholesterol related clinical biochemistry parameters” value ([3]; day 15, vs control, data not shown) was “none were significantly different from control”. The HDL [3, 4] was 59.00, the LDL [3, 4] was 11.08 and the “T. Chol” value [3, 4] was 84.20 mg/dL. The Trig [3, 4] was 70.60 mg/dL, the HDL [3, 5] was 61.60 and the LDL [3, 5] was 12.60. For the same substance, the “T. Chol” value [3, 5] was 91.00 mg/dL, the Trig [3, 5] was 84.00 mg/dL and the HDL [3, 6] was 54.80. For the same substance, the LDL [3, 6] was 9.40, the “T. Chol” value [3, 6] was 80.60 mg/dL and the Trig [3, 6] was 82.00 mg/dL. The HDL [3, 7] was 51.60, the LDL [3, 7] was 2.96 and the “T. Chol” value [3, 7] was 78.00 mg/dL. The Trig [3, 7] was 121.40* mg/dL, the HDL [3, 8] was 46.00 and the LDL [3, 8] was 4.16. For the same substance, the “T. Chol” value [3, 8] was 69.60 mg/dL, the Trig [3, 8] was 97.20 mg/dL and the HDL [3, 9] was 37.00. For the same substance, the LDL [3, 9] was 4.72, the “T. Chol” value [3, 9] was 58.20 mg/dL and the Trig [3, 9] was 82.40 mg/dL. The “effect on LDL levels in rats (words)” value [3] was “lowered LDL concentrations in blood”, the “effect on LDL levels in rats (words)” value ([3]; listed as CGRP antagonist) was “LDL lowering” and the “effect on LDL levels in rats (words)” value ([3]; listed as CGRP receptor antagonist) was “substantial LDL lowering”. The “effect on LDL levels in rats (words)” value ([3]; listed as peptide CGRP antagonist) was “lowering the LDL levels”.
